Source: US20090175866A1, “TREATMENT OF B-CELL MALIGNANCIES” (priority 2004, published 2009)

Assays:
UTMC2 cells = test: Viability of stimulated UTMC2 myeloma cells (MTT); format: cell-based, human
Protocol: FIG. 2 is a graph showing the viability of human myeloma cell lines in the presence of PRO-001. Viability is reported as the ratio between the optical density (OD) in the presence of FGF±inhibitor and the OD in the absence of FGF.
FIG. 4 is a graph showing viability of UTMC2 cells treated with FGF, IL6 or IGF-1. The dark bars represent stimulated cells treated with a control antibody; the dotted bar represents stimulated cells treated with 5 μg/ml PRO-001; the square-filled bar represents stimulated cells treated with 100 nM PD173074.
(§1) Non-transformed rat chondrocyte cell line expressing PGFR3 in an inducible manner (RCJ-FGFR3) has been described previously (Rauchenberger R. et al. J. Biol. Chem. 2003; 278:38194-205). Cells were maintained in α-Minimum Essential Media supplemented with 15% fetal calf serum (FCS), 2 mM L-Glutamine, 100 U/ml penicillin, 100 μg/ml streptomycin, 600 μg/ml G418 (Gibco BRL, Ontario, Canada), 2 μg/ml Tetracyclin (Sigma, Ontario, Canada), and 50 μg/ml HygromycinB (Gibco BRL). FGFR3 expression was induced by removal of tetracyclin and serum starvation. […]
(§2) Cell viability was assessed by 3-(4,5-dimethylthiazol)-2,5-diphenyl tetrazolium (MTT) or (2,3-bis(2-methoxy-4-nitro-5-sulphophenyl)-5-[(phenylamino) carbonyl]-2H-tetrazolium hydroxide (XTT) dye absorbance where indicated. Cells were seeded in 96-well plates at a density of 20,000 (FDCP-1 cells), 5,000 (B9 cells) or 25,000 cells (MM cell lines) per well in culture medium. Cells were incubated in the absence or presence of one of the following cytokines: 10 ng/ml FGF9 and 5 μg/ml heparin, 1% murine IL-6, 50 ng/ml IGF-1 or 50 ng/ml human IL-6 where indicated and increasing concentrations of PRO-001, control antibody (purified human Fab) or 100 nM PD173074. […]
PRO-001 was tested against t (4; 14) myeloma cell lines expressing FGFR3: UTMC2 cells—expressing WT FGFR3, and H929 cells—expressing WT FGFR3 but harboring a downstream activating mutation of N-Ras. Cell growth in the presence of FGF and PRO-001 (5 μg/ml), control antibody (isotype) or 100 nM PD173074 was determined by MTT assay. […]

FGFR3 = FGFR3 (Homo sapiens, UniProt P22607); test: FGFR3 domain specificity of binding
FGFR3^S249C = target: T1, FGFR3^S249C (Homo sapiens, UniProt P22607, S249C); test: FGF-independent proliferation of FDCP-FGFR3^S249C cells in vitro (XTT); format: cell-based; settings: two days
T1 construct: was transfected with full length FGFR1 (FDCP-FGFR1), FGFR2 (FDCP-FGFR2), FGFR3 (FDCP-FGFR3) or FGFR3^S249C mutant cDNAs; expressed in transfected cells; host or cells: FDCP-1 mouse myeloid progenitor cell line
Protocol: FIG. 8A is a graph showing viability of FDCP-FGFR3^S249C. Cells were cultured in the presence of increasing amounts of PRO-001 or a control antibody (C) for two days. Cell proliferation was determined by XTT analysis. Data are the average of duplicate cultures.
as §1, with “BRL).” for “BRL). FGFR3 expression was induced by removal of tetracyclin and serum starvation.”
as §2

KMS18 (FGFR3-G384D) = test: Viability of KMS18 myeloma cells; format: cell-based, human; settings: cells grow independent of FGF
Protocol: as §1, §2

WT FGFR3 = target: T2, WT FGFR3 (Homo sapiens, UniProt P22607); test: Viability of FGF-stimulated B9-FGFR3^WT cells; format: cell-based
T2 construct: expressed in transfected cells; host or cells: B9 cells
Protocol: FIG. 1B is a graph showing viability of B9-FGFR WT cells treated with different concentrations of PRO-001. The filled bars represent the control (no PRO-001). The dotted bars represent PRO-001 treated cells.
as §1, with “BRL).” for “BRL). FGFR3 expression was induced by removal of tetracyclin and serum starvation.”
as §2

KMS11 (FGFR3-Y373C) = test: Viability of KMS11 myeloma cells; format: cell-based, human; settings: cells grow independent of FGF
Protocol: as §1, §2

T2 sequence (P22607 23-806): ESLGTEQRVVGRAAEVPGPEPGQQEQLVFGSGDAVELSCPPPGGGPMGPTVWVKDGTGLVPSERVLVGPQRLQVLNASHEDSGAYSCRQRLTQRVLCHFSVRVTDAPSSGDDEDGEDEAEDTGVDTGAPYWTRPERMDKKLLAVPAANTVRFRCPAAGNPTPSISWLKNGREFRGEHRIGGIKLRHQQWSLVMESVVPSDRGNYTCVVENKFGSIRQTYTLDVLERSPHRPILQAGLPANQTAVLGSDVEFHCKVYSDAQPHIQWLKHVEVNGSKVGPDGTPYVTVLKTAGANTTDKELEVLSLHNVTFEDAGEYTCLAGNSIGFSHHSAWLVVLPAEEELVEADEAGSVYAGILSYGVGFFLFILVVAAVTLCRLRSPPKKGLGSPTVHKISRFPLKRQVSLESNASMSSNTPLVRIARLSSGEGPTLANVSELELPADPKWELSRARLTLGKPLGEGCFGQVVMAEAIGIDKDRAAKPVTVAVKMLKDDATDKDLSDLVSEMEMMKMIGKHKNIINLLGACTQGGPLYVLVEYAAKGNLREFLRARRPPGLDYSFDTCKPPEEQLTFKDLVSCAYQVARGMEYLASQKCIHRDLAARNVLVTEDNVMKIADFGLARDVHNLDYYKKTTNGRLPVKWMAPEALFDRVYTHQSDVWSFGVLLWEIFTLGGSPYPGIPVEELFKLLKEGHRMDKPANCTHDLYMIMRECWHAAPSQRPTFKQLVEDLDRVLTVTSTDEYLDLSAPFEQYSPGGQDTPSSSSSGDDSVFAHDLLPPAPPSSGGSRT
Chain of FGFR3 (P22607 23-806): as above
T1 sequence (P22607 23-806 S249C): as the sequence (P22607 23-806) above, with S227C counted along it

B1: PRO-001: human anti-FGFR3 Fab from HuCAL library; VH-CDR3 SEQ ID NO:1, VL-CDR3 SEQ ID NO:10; VH SEQ ID NO:19, VL SEQ ID NO:28 (antibody, V domains shown)
VH: QVQLQQSGPGLVKPSQTLSLTCAISGDSVSSNSAAWNWIRQSPGRGLEWLGRTYYRSKWYNDYAVSVKSRITINPDTSKNQFSLQLNSVTPEDTAVYYCARSYYPDFDYWGQGTLVTVSS
VL: DIELTQPPSVSVAPGQTARISCSGDALGDKYASWYQQKPGQAPVLVIYDDSDRPSGIPERFSGSNSGNTATLTISGTQAEDEADYYCQSYDGPDLWVFGGGTKLTVLGQ
UTMC2 cells; 5 μg/ml PRO-001
  Viability of UTMC2 cells stimulated with IGF-1: remain sensitive
  Viability of UTMC2 cells stimulated with IL6: remain sensitive
UTMC2 cells; 5 μg/ml, MTT
  Proliferation of FGF-stimulated UTMC2 cells: significantly inhibited
FGFR3
  FGFR3 Domain Specificity: 2
FGFR3^S249C
  FGF-independent proliferation of FDCP-FGFR3^S249C in vitro: efficiently blocked
KMS18 (FGFR3-G384D)
  Viability of KMS18 (FGFR3-G384D): failed to inhibit the viability
WT FGFR3; 1 μg/ml antibody
  Growth inhibition of FGF stimulated B9-FGFR3^WT cells: about 25%
WT FGFR3; 5 μg/ml antibody
  Growth inhibition of FGF stimulated B9-FGFR3^WT cells: more than 60%
KMS11 (FGFR3-Y373C)
  Viability of KMS11 (FGFR3-Y373C): failed to inhibit the viability
